Assay results taken from patent publication US20050260693A1 (MOUNT SINAI SCHOOL OF MEDICINE, published 2005).
Where no end group is shown, it is not given here. [ ]: non-standard residue; d: D form. pS = N[C@@H](COP(=O)(O)O)C(=O)O

T1: GST-322 prephosphorylated by PKC
T1 sequence: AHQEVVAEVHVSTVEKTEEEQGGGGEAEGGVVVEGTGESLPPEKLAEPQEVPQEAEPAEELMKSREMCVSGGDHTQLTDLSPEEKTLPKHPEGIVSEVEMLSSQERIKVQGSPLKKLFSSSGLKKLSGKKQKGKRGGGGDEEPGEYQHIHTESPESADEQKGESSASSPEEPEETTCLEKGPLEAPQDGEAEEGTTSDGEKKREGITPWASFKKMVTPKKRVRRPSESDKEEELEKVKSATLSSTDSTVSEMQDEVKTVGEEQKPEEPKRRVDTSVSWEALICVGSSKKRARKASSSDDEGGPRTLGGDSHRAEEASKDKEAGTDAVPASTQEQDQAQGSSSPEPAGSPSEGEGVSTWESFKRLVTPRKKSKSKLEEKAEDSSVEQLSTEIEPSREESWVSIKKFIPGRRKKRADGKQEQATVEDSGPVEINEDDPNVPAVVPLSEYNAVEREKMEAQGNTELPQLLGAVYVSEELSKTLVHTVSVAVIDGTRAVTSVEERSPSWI

T2: GST-322 fusion protein
T2 sequence: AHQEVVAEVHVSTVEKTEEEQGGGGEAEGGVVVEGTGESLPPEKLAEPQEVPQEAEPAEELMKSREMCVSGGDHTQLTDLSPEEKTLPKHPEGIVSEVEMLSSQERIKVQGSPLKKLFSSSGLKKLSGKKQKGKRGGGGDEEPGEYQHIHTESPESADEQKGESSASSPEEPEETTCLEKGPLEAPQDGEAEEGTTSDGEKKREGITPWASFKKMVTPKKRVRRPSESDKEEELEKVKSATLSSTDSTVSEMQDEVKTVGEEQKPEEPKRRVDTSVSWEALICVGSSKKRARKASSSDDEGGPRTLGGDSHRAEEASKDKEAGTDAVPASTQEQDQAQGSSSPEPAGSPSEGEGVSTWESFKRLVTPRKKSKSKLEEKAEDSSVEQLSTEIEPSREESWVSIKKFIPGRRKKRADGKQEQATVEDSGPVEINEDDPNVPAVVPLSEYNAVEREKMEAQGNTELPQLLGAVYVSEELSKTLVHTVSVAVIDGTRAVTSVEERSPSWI


What was measured:
[1] = tested on: T1, GST-322 prephosphorylated by PKC; experiment: GST pull-down of PKC with phosphatidylserine; against the unphosphorylated fusion protein
GST-322 fusion protein = tested on: T2, GST-322 fusion protein
[2] = biological target: T3, cyclin D1 (endogenous and ectopic) of S24, S24/D1, S24/V and V3 cells (UniProt P25322 1-295); experiment: cell-based or functional assay
[3] = biological target: cyclin D1 (endogenous and ectopic) of S24, S24/D1, S24/V and V3 cells (UniProt P25322); experiment: GST pull-down with mutated GST-SSeCKS2
[4] = biological target: T3, cyclin D1 (endogenous and ectopic) of …; experiment: cell-based or functional assay; remark: listed apart in the source

T3 sequence (P25322 whole entry): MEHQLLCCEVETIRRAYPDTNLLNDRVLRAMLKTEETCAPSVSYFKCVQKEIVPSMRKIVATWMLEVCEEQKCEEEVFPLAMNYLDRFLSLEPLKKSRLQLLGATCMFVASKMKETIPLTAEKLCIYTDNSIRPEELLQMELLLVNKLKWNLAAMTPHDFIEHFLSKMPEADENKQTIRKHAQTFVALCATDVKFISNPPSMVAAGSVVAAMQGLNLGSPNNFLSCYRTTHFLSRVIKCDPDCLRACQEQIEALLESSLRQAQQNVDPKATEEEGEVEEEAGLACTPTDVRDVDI
Sequence of cyclin D1 (endogenous and ectopic) of S24, S24/D1, S24/V and V3 cells (UniProt P25322) (P25322 whole entry): as above

Molecule	% of cells showing nuclear staining of cyclin D1, S24/D1, -TET, peptide 100 µg/ml for 4 h [2] [%]	reduction of cyclin D1 binding against wild-type GST-SSeCKS2 [3] [%]	other results
purified rabbit brain PKC	–	–	fold decrease of binding after prephosphorylation by PKC [1]: Prephosphorylation of GST-322 by PKC decreases this binding at least 10-fold; in vitro phosphorylation by PKC ([32P]ATP, SDS-PAGE and autoradiography) (GST-322 fusion protein): purified rat brain PKC containing α, β, and δ isoforms could phosphorylate GST-322 protein in vitro
RQIKIWFQNRRMKWKKLKKLF[pS]SSGLKKL[pS]GK (also: N-terminal biotin on half of the product) [penetratin-linked phosphoserine CY peptide]	39	–	–
GST-SSeCKS2 with upstream KK mutated to SS (protein, not shown: a dimerising Fc or GST) AHQEVVAEVHVSTVEKTEEEQGGGGEAEGGVVVEGTGESLPPEKLAEPQEVPQEAEPAEELMKSREMCVSGGDHTQLTDLSPEEKTLPKHPEGIVSEVEMLSSQERIKVQGSPLSSLFSSSGLKKLSGKKQKGKRGGGGDEEPGEYQHIHTESPESADEQKGES	–	70	–
GST-SSeCKS2 with downstream KK mutated to SS (protein, not shown: a dimerising Fc or GST) AHQEVVAEVHVSTVEKTEEEQGGGGEAEGGVVVEGTGESLPPEKLAEPQEVPQEAEPAEELMKSREMCVSGGDHTQLTDLSPEEKTLPKHPEGIVSEVEMLSSQERIKVQGSPLKKLFSSSGLSSLSGKKQKGKRGGGGDEEPGEYQHIHTESPESADEQKGES	–	70	–
RQIKIWFQNRRMKWKKLKKLFSSSGLKKLSGK (also: N-terminal biotin on half of the product) [penetratin-linked wt SSeCKS CY peptide]	82	–	increase in cyclin D translocation to nuclei, S24/D1 cells incubated 4 h with peptide [4]: ~2 fold
RQIKIWFQNRRMKWKKLSSSFSSSGLSSSSGK (also: N-terminal biotin on half of the product) [penetratin-linked mutated CY peptide (K→S)]	30	–	–
